# US20050181450A1, “Novel inositol 1,4,5-trisphosphate (IP3) receptor-binding protein and an IP3 indicator” (priority 2002, published 2005)
# B1: IRBIT: novel IP3 receptor-binding protein of 530 amino acids, SEQ ID NO: 1 (protein, listed as Mus musculus)
# chain: MSMPDAMPLPGVGEELKQAKEIEDAEKYSFMATVTKAPKKQIQFADDMQEFTKFPTKTGRRSLSRSISQSSTDSYSSAASYTDSSDDEVSPREKQQTNSKGSSNFCVKNIKQAEFGRREIEIAEQDMSALISLRKRAQGEKPLAGAKIVGCTHITAQTAVLIETLCALGAQCRWSACNIYSTQNEVAAALAEAGVAVFAWKGESEDDFWWCIDRCVNMDGWQANMILDDGGDLTHWVYKKYPNVFKKIRGIVEESVTGVHRLYQLSKAGKLCVPAMNVNDSVTKQKFDNLYCCRESILDGLKRTTDVMFGGKQVVVCGYGEVGKGCCAALKALGAIVYITEIDPICALQACMDGFRVVKLNEVIRQVDVVITCTGNKNVVTREHLDRMKNSCIVCNMGHSNTEIDVTSLRTPELTWERVRSQVDHVIWPDGKRVVLLAEGRLLNLSCSTVPTFVLSITATTQALALIELYNAPEGRYKQDVYLLPKKMDEYVASLHLPSFDAHLTELTDDQAKYLGLNKNGPFKPNYYRY
# Legend:
# [1] = test system: sodium bicarbonate cotransporter; assay: Immunoprecipitation from mouse cerebellum and mass spectrometry; type: binding; settings: mouse cerebellar cytosol or microsome detergent extract
# Experimental: (§1) Mouse cerebellar cytosol fraction or detergent extract of microsome fraction was immunoprecipitated with 50 μg of anti-IRBIT antibody or rabbit IgG. Immunoprecipitates were separated by 10% SDS-PAGE gel, and stained with Coomassie Brilliant Blue. The bands were excised from the gel and digested with lysyl endopeptidase and analyzed with mass spectrometry. Arrows indicate the bands of sodium bicarbonate cotransporter.
# as §1, with “Blue (FIG. 13).” for “Blue.”
# [2] = target: T1, GST-IbIIa (IP3-binding region of mouse IP3R1) (Mus musculus, UniProt P11881); assay: GST pulldown with GST-IbIIa; settings: IRBIT in high salt extract
# T1 construct: GST-IbIIa (amino acids 224-604 of mouse IP3R1) and its site-directed mutants K508A and R441Q; made in house
# T1 sequence (P11881 224-604): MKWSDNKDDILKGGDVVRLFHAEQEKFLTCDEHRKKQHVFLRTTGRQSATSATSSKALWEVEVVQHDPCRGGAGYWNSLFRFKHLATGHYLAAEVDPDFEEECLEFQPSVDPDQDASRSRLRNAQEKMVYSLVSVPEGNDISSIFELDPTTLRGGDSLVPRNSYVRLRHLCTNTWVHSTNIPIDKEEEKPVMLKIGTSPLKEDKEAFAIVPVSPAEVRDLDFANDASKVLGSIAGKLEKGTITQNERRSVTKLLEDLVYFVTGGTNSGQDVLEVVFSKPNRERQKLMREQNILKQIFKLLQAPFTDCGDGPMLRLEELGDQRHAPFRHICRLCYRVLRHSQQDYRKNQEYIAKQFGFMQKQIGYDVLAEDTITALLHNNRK
# Description: (§2) The cDNAs encoding the full-length and N-terminal region (amino acids 1-104) of IRBIT were subcloned into the Escherichia coli hexahistidine (His) fusion vector pET-23a(+) (Novagen) to generate IRBIT-His and IRBIT(1-104)-His expression vectors, respectively. The same cDNAs were subcloned into the GST fusion vector pGEX-4T-1 (Amersham Pharmacia Biotech) to generate GST-IRBIT and GST-IRBIT(1-104) expression vectors, respectively. The cDNA fragments encoding the amino acids 1-225, 1-343, 341-923, 600-1248, 916-1581 and 1553-1943 of the amino acid sequence (SEQ ID NO: 7) of mouse IP3R1 were inserted into pGEX-KG to generate GST-Ia, GST-Iab, GST-IIab, GST-IIbIIIa, GST-IIIab and GST-IV expression vectors, respectively. The amino acids 1593-2217 of mouse IP3R1 were inserted into pGEX-4T-1 to obtain GST-IV-Va expression vector. These fusion proteins were expressed in Escherichia coli. GST-EL was expressed in Sf9 cells as described above. […]
# (§3) For the determination of the IRBIT binding region and the critical amino acid residue of IP3R1, the diluted high salt extract was subjected to pulldown assay as described above with 100 pmol of GST, GST-EL, GST-Ia, GST-Iab, GST-IbIIa, GST-IIab, GST-IIbIIIa, GST-IIIab, GST-IV, GST-IV-Va, K508A or R441Q, and analyzed by Western blotting with anti-IRBIT antibody.
# [3] = target: T2, R441Q mutant of GST-IbIIa (Mus musculus, UniProt P11881, R441Q); assay: GST pulldown with R441Q; type: binding; settings: IRBIT in high salt extract; compared with GST-IbIIa
# T2 construct: GST-IbIIa (amino acids 224-604 of mouse IP3R1) and its site-directed mutants K508A and R441Q; made in house
# T2 sequence (P11881 224-604 R441Q): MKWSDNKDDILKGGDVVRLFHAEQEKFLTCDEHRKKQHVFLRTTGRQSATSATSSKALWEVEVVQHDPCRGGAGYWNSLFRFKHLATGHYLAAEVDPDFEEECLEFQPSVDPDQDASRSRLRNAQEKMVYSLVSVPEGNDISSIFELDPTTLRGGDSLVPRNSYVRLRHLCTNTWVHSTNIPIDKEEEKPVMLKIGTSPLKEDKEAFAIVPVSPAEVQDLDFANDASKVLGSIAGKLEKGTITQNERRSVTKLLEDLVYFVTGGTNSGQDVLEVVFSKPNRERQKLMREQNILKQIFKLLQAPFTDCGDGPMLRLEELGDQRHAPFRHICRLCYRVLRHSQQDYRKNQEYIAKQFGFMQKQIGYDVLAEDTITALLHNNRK
# Description: as §2, §3
# GST-EL (IP3R) = target: T3, GST-EL (IP3R) (Mus musculus, UniProt P11881, N1264K); assay: [3H]IP3 binding to GST-EL; settings: IRBIT treated with alkaline phosphatase
# T3 construct: construct a GST-IP3R1 (1-2217) vector (termed GST-EL); made in house; host or cells: GST-EL: Sf9 cells; His-IRBIT: Sf9 cells or E. coli
# T3 sequence (P11881 1-2217 N1264K): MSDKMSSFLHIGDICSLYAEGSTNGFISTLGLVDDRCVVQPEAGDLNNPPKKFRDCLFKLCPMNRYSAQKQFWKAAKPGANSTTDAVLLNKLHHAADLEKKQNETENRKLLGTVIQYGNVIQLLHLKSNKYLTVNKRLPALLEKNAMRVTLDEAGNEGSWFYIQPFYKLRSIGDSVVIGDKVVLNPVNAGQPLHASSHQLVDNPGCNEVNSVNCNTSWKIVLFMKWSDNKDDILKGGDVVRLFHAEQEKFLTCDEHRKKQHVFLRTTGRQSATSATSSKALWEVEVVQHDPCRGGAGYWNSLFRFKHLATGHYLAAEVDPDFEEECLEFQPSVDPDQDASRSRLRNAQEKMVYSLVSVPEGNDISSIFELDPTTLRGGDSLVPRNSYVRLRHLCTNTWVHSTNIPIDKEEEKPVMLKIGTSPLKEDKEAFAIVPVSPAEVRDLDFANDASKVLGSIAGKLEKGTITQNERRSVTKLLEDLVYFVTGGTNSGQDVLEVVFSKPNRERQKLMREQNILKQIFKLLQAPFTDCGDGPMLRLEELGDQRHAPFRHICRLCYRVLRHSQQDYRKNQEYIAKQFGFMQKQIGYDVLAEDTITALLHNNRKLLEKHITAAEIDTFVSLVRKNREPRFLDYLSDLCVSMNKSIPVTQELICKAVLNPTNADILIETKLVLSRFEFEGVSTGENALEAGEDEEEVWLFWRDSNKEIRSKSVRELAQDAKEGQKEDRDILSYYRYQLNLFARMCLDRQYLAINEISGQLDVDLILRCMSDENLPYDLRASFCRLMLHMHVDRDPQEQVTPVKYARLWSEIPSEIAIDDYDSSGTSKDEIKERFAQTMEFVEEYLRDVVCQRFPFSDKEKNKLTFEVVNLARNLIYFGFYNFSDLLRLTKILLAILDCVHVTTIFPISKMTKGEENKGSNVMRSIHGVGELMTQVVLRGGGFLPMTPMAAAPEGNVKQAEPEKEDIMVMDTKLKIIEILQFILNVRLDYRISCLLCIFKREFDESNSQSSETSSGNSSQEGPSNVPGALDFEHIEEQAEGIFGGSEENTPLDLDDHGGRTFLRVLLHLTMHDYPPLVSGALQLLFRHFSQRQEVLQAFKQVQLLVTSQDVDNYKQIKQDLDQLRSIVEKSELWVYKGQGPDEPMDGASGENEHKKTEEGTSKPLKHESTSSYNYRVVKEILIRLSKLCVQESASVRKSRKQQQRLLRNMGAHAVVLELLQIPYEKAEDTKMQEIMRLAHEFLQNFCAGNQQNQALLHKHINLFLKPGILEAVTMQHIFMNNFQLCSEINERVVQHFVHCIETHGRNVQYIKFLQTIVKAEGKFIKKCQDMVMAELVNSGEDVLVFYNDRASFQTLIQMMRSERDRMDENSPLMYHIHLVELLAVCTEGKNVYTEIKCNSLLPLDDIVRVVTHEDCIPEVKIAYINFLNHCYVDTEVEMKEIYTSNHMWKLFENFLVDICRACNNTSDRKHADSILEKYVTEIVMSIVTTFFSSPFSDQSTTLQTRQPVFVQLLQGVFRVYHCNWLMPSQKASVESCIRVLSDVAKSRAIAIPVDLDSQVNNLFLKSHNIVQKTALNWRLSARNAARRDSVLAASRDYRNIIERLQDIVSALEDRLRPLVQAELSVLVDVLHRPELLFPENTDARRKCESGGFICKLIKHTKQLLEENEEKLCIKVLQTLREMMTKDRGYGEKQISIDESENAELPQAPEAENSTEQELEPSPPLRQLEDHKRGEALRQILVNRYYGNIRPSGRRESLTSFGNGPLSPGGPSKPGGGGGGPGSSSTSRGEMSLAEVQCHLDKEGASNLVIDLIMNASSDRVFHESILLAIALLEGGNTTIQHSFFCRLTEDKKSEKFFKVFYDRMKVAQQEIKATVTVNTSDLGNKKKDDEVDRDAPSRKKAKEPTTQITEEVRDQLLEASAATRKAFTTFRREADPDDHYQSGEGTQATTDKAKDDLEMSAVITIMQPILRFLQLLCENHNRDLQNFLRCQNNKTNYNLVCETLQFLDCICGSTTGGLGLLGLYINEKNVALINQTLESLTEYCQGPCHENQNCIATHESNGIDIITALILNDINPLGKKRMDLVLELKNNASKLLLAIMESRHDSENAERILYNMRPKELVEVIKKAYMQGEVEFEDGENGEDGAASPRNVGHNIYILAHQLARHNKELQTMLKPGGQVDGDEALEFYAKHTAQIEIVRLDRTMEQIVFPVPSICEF
# Experimental: (A) 0.2 μg of GST-EL was incubated with 0.1, 1, or 10 μg of purified His-tagged IRBIT expressed in Sf9 cells or E. coli in a solution containing 50 mM Tris-HCl (pH 8.0), 1 mM EDTA, and 1 mM 2-mercaptoethanol, for 30 min on ice. Then 8.7 nM [^3H]IP3 (PerkinElmer Life Sciences) was added to the samples and incubated for 10 min on ice (total volume was 50 μl). The samples were mixed with 2 μl of 50 mg/ml γ-globulin and 50 μl of 30% PEG6000, 50 mM Tris-HCl (pH 8.0), and incubated for 5 min on ice. Non-specific binding was measured in the presence of 10 μM cold IP3. After centrifugation at 20,000×g for 5 min, the precipitate was dissolved in SOLVABLE™ (Packard) and the radioactivity was measured with a liquid scintillation counter (Beckman Coulter). Results are shown as the mean±S.D. from three independent experiments. (B) Purified His-IRBIT expressed in Sf9 cells was incubated with alkaline phosphatase for 30 min at 37° C. prior to the IP3 binding assay described as in (A). (C and D) Scatchard analysis. 0.1 μg of GST-EL was incubated with or without 1 μg of purified His-tagged IRBIT expressed in Sf9 cells as described in (A). Then 2.17 nM [^3H]IP3 and 2-500 nM cold IP3 were added to the samples and incubated for 10 min on ice (total volume was 100 μl). Non-specific binding was measured in the presence of 10 μM cold IP3. [^3H]IP3 binding to GST-EL was measured as described in (A).
# The effect of IRBIT on binding of IP3 to IP3R was examined. GST-EL (0.2 μg) was incubated with 0.1, 1, or 10 μg of purified His-tagged IRBIT expressed in Sf9 cells or E. coli in a solution containing 50 mM Tris-HCl (pH 8.0), 1 mM EDTA, and 1 mM 2-mercaptoethanol, for 30 min on ice. Then 8.7 nM [^3H]IP3 (PerkinElmer Life Sciences) was added to the samples and incubated for 10 min on ice (total volume was 50 μl). The samples were mixed with 2 μl of 50 mg/ml γ-globulin and 50 μl of 30% PEG6000, 50 mM Tris-HCl (pH 8.0), and incubated for 5 min on ice. Non-specific binding was measured in the presence of 10 μM cold IP3. After centrifugation at 20,000×g for 5 min, the precipitate was dissolved in SOLVABLE™ (Packard) and the radioactivity was measured with a liquid scintillation counter (Beckman Coulter). […] 0.1 μg of GST-EL was incubated with or without 1 μg of purified His-tagged IRBIT expressed in Sf9 cells as described in (A). Then 2.17 nM [^3H]IP3 and 2-500 nM cold IP3 were added to the samples and incubated for 10 min on ice (total volume was 100 μl). Non-specific binding was measured in the presence of 10 μM cold IP3. [^3H]IP3 binding to GST-EL was measured as described in (A). […] Bmax was not changed.
molecule,measurement,setting,value
B1,interaction with sodium bicarbonate cotransporter,[1],interacted
same,binding to GST-IbIIa,[2],to the same extent as GST-EL
same,binding to R441Q,[3],to the same extent
same,effect on IP3 binding of GST-EL after dephosphorylation,GST-EL (IP3R),reduced effect
